In US20250177557A1, “METHODS OF PRODUCING MICROBUBBLE DRUG CONJUGATES, VIRAL GENE THERAPY MICROBUBBLE CONJUGATES AND TARGETED MICROBUBBLES” (priority 2022, published 2025):

Tested on: human SHSY-5Y cells
Assay: Neuroprotection of differentiated SHSY-5Y cells against parkinsonian neurotoxins (CFDA cell viability)
Type: cell-based
Settings: pre-treatment, rhGDNF 50 ng/ml, CDNF-MDCs 25-250 ng/ml
Experimental: Neuroprotection was tested in the well-established neuronal model of human SHSY-5Y cells (Lopes, F. M.,. et al. (2010) Brain Res. 1337, 85-94) treated with parkinsonian neurotoxins. Human SHSY-5Y cells were grown in 24 well dishes and differentiated into neuron-like cells by treatment with 10 μM retinoic acid (RA) for 7 days (FIG. 8A).
Cell viability was quantified by the CFDA assay as described previously (Sandhu, J. K., et al. (2009) Neurobiol. Dis. 33, 405-414.).
Recombinant human GDNF at 50 ng/ml was used as a positive control.

B1: rhGDNF: Recombinant human GDNF, positive control (protein, UniProt P39905 78-211, looked up)
Glial cell line-derived …: SPDKQMAVLPRRERNRQAAAANPENSRGKGRRGQRGKNRGCVLTAIHLNVTDLGLGYETKEELIFRYCSGSCDAAETTYDKILKNLSRNRRLVSDKVGQACCRPIAFDDDLSFLDDNLVYHILRKHSAKRCGCI
Neuroprotection against thapsigargin (cell viability) (1.0 μM thapsigargin ~16 h): protected from cell death | Neuroprotection against MPP+ (cell viability) (1.0 mM MPP+ ~16 h): protected from cell death
